Data published in patent US20210261626A1 (DONALDSON, published 2021).

Biological target: human serum albumin (human, UniProt P02768 25-609)
Experiment: phase separation pull-down with 0.6 M NaCl and centrifugation, supernatant and pellet on SDS-PAGE

human serum albumin, sequence (P02768 25-609 limits assumed): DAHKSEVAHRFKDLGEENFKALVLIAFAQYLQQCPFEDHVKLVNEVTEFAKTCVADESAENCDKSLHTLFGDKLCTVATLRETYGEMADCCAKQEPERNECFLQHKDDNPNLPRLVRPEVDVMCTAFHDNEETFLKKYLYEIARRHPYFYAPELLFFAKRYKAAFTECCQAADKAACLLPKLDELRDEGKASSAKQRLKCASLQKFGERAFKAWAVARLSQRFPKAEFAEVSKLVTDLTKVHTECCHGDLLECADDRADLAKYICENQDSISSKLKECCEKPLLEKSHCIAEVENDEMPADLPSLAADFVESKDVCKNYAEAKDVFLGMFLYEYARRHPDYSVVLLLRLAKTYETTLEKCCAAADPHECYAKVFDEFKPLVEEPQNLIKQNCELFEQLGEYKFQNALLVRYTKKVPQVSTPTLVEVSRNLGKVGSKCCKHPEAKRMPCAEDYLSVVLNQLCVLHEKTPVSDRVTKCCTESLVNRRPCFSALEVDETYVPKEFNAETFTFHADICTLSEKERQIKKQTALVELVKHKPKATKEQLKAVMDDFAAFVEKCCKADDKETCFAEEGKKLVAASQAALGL

B1: ELP1,80-CapG (designed binder)
chain: MSKGPGVGVPGLGVPGVGVPGLGVPGVGVPGVGVPGLGVPGVGVPGLGVPGVGVPVGVPGLGVPGVGVPGLGVPGVGVPGVGVPGLGVPGVGVPGLGVPGVGVPVGVPGLGVPGVGVPGLGVPGVGVPGVGVPGLGVPGVGVPGLGVPGVGVPVGVPGLGVPGVGVPGLGVPGVGVPGVGVPGLGVPGVGVPGLGVPGVGVPVGVPGLGVPGVGVPGLGVPGVGVPGVGVPGLGVPGVGVPGLGVPGVGVPVGVPGLGVPGVGVPGLGVPGVGVPGVGVPGLGVPGVGVPGLGVPGVGVPVGVPGLGVPGVGVPGLGVPGVGVPGVGVPGLGVPGVGVPGLGVPGVGVPVGVPGLGVPGVGVPGLGVPGVGVPGVGVPGLGVPGVGVPGLGVPGVGVPGTYKLILNGKTLKGETTTEAVDAATAEKVFKQYANDNGVDGEWTYDDATKTFTVTEG
notes: Expressed in E. coli; also called fusion comprised of an optimal ELP and a Protein G domain
- binding result: no binding
